Data from paper PMC12615815, “GroEL/ES chaperonin unfolds then encapsulates a nascent protein on the ribosome” (Nature Communications, 2025).

Columns and labels:
[1] = biological target: RNC_(1-510mut): stalled 70S ribosome:nascent chain complex with β-galactosidase 1-510 carrying I141N and G353D (E. coli); assay: co-sedimentation; RNC first incubated with GroEL and GroES (20 min, 30 °C), then 1 mM ATP, 1 mM BeSO4, 10 mM NaF (10 min, 30 °C); 35% sucrose cushion; pellet by immunoblot (GroEL, GroES, S2) and iBAQ mass spectrometry
[2] = biological target: RNC_(1-510mut): stalled 70S ribosome:nascent chain complex with β-galactosidase 1-510 carrying I141N and G353D (E. coli); assay: co-sedimentation; RNC with GroEL, no GroES and no ATP/BeFx; pellet quantified by iBAQ mass spectrometry, normalised to the average of the ribosomal proteins; n = 3
[3] = biological target: T1, Ribosomal stalk protein L7/L12 (E. coli, UniProt P0A7K2 1-121); assay: cross-linking; XL-MS: RNC_(1-510mut) with 5 µM GroEL and 10 µM GroES, then 1 mM ATP, 1 mM BeSO4, 10 mM NaF; 1 mM DSBU 1 h at 25 °C; conditions: both partners purified
T1 construct: ribosomal protein L7/L12, E. coli, as part of the ribosome; Cross-linked while part of the 70S ribosome or RNC; also called stalk complex; source: endogenous, in E. coli 70S ribosomes (bought: NEB) and in RNCs purified from E. coli

Molecule | stoichiometry N (GroEL subunits per ribosome) [1] | stoichiometry N (GroEL subunits per ribosome) [2] | binding result [3]
GroEL (V381W, A384W, V387W) (from UniProt P0A6F5 2-525) (natural protein) | 6.7 | 9.8 | 
GroES (L49W) (natural protein, E. coli, UniProt P0A6F9 1-97, looked up, GroES, E. coli co-chaperonin subunit (10.5 kDa as printed); tryptophan mutant used for quantification; also called GroES 7-mer; source: E. coli BL21(DE3), purified (StrepTactin, 3C cleavage, Superdex 200, GSTrap); not shown: double StrepII, N-terminal, cleaved) MNIRPLHDRVIVKRKEVETKSAGGIVLTGSAAAKSTRGEVLAVGNGRIWENGEVKPLDVKVGDIVIFNDGYGVKSEKIDNEEVLIMSESDILAIVEA |  |  | binds
